We go through two molecules from publication PMC8998336, “Structural and Biophysical Insights into SPINK1 Bound to Human Cationic Trypsin” (International Journal of Molecular Sciences, 2022).

Substitutions are numbered along the chain they refer to. Names and notes keep the numbering of the source. Where only a bound is given, the exact number is not on record here.

Settings in all cases: both partners purified
Experiment [1] has as its target T1, human cationic trypsin (TRY1) p.S200A (human, UniProt P07477 24-247, p.S200A).
T1 construct: human cationic trypsin (TRY1); cloned as amino acids 16-247 (signal peptide removed); His6-tag and propeptide removed after enterokinase digestion; the final structure contains amino acids 24-247; catalytic serine replaced by alanine; also called TRY1 S200A; not shown: His6, N-terminal, cleaved
Kind of experiment: ITC; MicroCal PEAQ-ITC, 37 °C; TRY1 p.S200A in the cell at 5-10 µM, SPINK1 in the syringe at 50-100 µM; 20 mM Hepes pH 7.4, 150 mM NaCl, 2 mM CaCl2; one-site binding model. (Isothermal titration calorimetry measures the heat released or taken up as one component is titrated into another.)

In experiment [2] the target is T1, human cationic trypsin (TRY1) p.S200A. Put plainly: SPR; BIAcore T200, TRY1 p.S200A amine-coupled to a CM5 chip; SPINK1 3.125-50 nM, single-cycle kinetics, 37 °C, 50 µL/min; 20 mM Hepes pH 7.4, 150 mM NaCl, 2 mM CaCl2, 0.05% Tween20; 1:1 Langmuir model. (SPR reads the build-up and loss of mass on a sensor chip optically.)
In experiment [3] the target is T2, human cationic trypsin (TRY1) WT (human, UniProt P07477 24-247).
T2 construct: human cationic trypsin (TRY1); cloned as amino acids 16-247 (signal peptide removed); His6-tag and propeptide removed after enterokinase digestion; not shown: His6, N-terminal, cleaved
Kind of experiment: enzyme inhibition assay (Morrison tight-binding fit); 100 pM TRY1, 1 mM L-BAPA, SPINK1 15.625-2000 pM; 20 mM Hepes pH 7.4, 150 mM NaCl, 2 mM CaCl2, 0.05% Tween20; 37 °C; initial rates after a 5 h lag phase; Morrison's quadratic equation.

B1: serine protease inhibitor Kazal-type 1 (SPINK1) WT (natural protein, human, UniProt P00995 24-79, looked up)
chain: DSLGREAKCYNELNGCTKIYDPVCGTDGNTYPNECVLCFENRKRQTSILIQKSGPC
notes: N-terminal truncation removes the signal peptide; pET47b construct with His6-tag and HRV3C cleavage site; source: SHuffle T7 Express E. coli, purified (HisTrap HP, HRV3C digestion, His6-tag removed on the same HisTrap column); not shown: His6, N-terminal, cleaved
For orientation: kon means the second-order rate constant of association. A higher kon goes with fast association. What is called Ki is a measure of affinity in units of concentration, obtained from inhibition or displacement. B1 displayed a dH in experiment [1] of roughly -10 kcal/mol. In experiment [2], the “half-life t1/2 of the complex” value was roughly 1 h and the kon worked out at 250000 M⁻¹ s⁻¹. In experiment [3], this molecule registered an inhibition constant (Ki) of less than 0.05 nM.

B2: serine protease inhibitor Kazal-type 1 (SPINK1) p.N34S (natural protein, human, UniProt P00995 24-79, looked up)
chain: B1 chain with N11S
notes: made by site directed mutagenesis; pET47b construct with His6-tag and HRV3C cleavage site; also called SPINK1 N34S; p.N34S mutant; source: SHuffle T7 Express E. coli, purified (HisTrap HP, HRV3C digestion, His6-tag removed on the same HisTrap column); not shown: His6, N-terminal, cleaved
The molecule B2 showed a dH in experiment [1] of roughly -10 kcal/mol. Besides, in experiment [2], the “half-life t1/2 of the complex” value is roughly 1 h and the kon was found to be 250000 M⁻¹ s⁻¹. The molecule further returned a Ki in experiment [3] of less than 0.05 nM.
